This experiment concerns the target human carcinoembryonic antigen-related cell adhesion molecule 1 (CEACAM1) (human) (UniProt P13688). Kind of experiment: cell-based or functional assay.
Chain of UniProt P13688 (P13688 35-526): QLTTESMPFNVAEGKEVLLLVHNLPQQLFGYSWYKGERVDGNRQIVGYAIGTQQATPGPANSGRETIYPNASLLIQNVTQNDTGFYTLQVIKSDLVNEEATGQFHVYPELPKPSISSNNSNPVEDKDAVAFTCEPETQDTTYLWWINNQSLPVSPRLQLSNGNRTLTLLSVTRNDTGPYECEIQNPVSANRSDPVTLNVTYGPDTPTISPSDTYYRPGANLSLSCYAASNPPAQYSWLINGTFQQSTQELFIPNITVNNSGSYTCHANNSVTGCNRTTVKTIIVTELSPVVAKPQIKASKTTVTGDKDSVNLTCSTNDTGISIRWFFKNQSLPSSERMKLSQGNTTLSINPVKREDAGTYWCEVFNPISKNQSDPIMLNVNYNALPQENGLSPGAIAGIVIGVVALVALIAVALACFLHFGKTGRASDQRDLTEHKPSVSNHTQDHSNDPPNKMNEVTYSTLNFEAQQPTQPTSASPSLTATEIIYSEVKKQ

B1: CM24, humanized IgG4 anti-CEACAM1 monoclonal antibody (antibody, V domains shown)
VH: QVQLVQSGAEVKKPGASVKVSCKASGYAFTNNLIEWVRQAPGQGLEWIGVINPGSGDTNYNEKFKGRVTMTADKSISTAYMELSRLRSDDTAVYYCARGDYYGGFAVDYWGQGTTVTVSS
VL: DIQMTQSPSSLSASVGDRVTITCRTSQDIGNYLNWYQQKPGKAVKLLIYYTSRLHSGVPSRFSGSGSGTDYTLTISSLQPEDIATYFCQQGKSLPRTFGGGTKVEIKR
In the case of B1, the % Inhibition of NET-induced migration (vs. isotype control), human NSCLC A549 was 82.7%; the % Inhibition of NET-induced migration (vs. isotype control), human PDAC AsPC-1 was determined as 49.1%; the % Inhibition of NET-induced migration (vs. isotype control), human melanoma SKMEL-28 is 69.5%; the ADP-induced platelet aggregation, mean (ADP + CM24, 500 µg/ml, 30 min pretreat) came to 721 AUC. Also, the AUC of cell count, NET-induced migration of AsPC-1 cells (CM24 + NETs, 500 µg/ml) turned out to be 30600 AUC; the Mean AUC of cell count, NET-induced migration of A549 cells (CM24 + NETs, 500 µg/ml) is 6580 AUC; the Mean AUC of cell count, NET-induced migration of SKMEL-28 cells (CM24 + NETs, 500 µg/ml) came to 2950 AUC; the Norm. AUC of cell count, NET-induced migration of A549 cells (CM24 + NETs, 500 µg/ml) amounted to 2170 AUC. Also, the Norm. AUC of cell count, NET-induced migration of AsPC-1 cells (CM24 + NETs, 500 µg/ml) was found to be 9410 AUC; the Norm. AUC of cell count, NET-induced migration of SKMEL-28 cells (CM24 + NETs, 500 µg/ml) worked out at 1640 AUC; the Percentage platelet aggregation at 30 min, fresh NETs 5 ng/µl, 500 µg/ml CM24 was -5.3%; the Percentage platelet aggregation at 30 min, fresh NETs 10 ng/µl, 500 µg/ml CM24 worked out at 11.5%. In addition, the Platelet aggregation with fresh NETs 5 ng/µl, mean AUC (% aggregation versus time), 500 µg/ml CM24 came to 179 AUC; the Platelet aggregation with fresh NETs 10 ng/µl, mean AUC (% aggregation versus time), 500 µg/ml CM24 came out at 377 AUC; the Reduction of NET-induced platelet aggregation vs. isotype control, 5 ng/µl fresh NETs is 70%; the Reduction of NET-induced platelet aggregation vs. isotype control, 10 ng/µl fresh NETs is 53%.

The values are drawn from patent US20260167717A1.
